In patent US12287344B2, “Fret-based method to measure seeding activity of misfolded protein species in biological samples” (MAX-DELBRÜCK-CENTRUM FÜR MOLEKULARE MEDIZIN IN DER …, priority 2018, dated 2025):

Test system: Ex1Q48-CyPet/-YPet
Test: FRASE assay: effect of added preformed fibrils/seeds on Ex1Q48-CyPet/-YPet polymerization
Format: biochemical, human
Conditions: sonicated Ex1Q48 seeds (~1,250 kDa); sensor 1:1 mixture, 1.2 μM
Experimental: (B) Effects of small, preformed Ex1Q48 seeds (1250 kDa) on Ex1Q48-CyPet and -YPet (1:1 mixture, total conc. 1.2 μM) co-aggregation. Data are mean±SEM (n=5).
(D) Effects of non-polyQ fibrils on Ex1Q48-CyPet and -YPet (1:1 mixture, total conc. 1.2 μM) co-aggregation. Data are mean±SD of triplicates.
Spontaneous Ex1Q48 aggregation was initiated by addition of 14 U PreScission protease (GE Healthcare) per nmol purified GST-Ex1Q48 fusion protein (2 μM). The aggregation reaction was performed in 50 mM Tris-HCl pH 7.4, 150 mM NaCl, 1 mM EDTA and 1 mM DTT at 25° C. and constant agitation (450 rpm) for 24 h. […]
Purified GST-Ex1Q48-CyPet and GST-Ex1Q48-YPet were diluted in aggregation buffer at an equimolar ratio to a final concentration of 1.2 μM (0.6 μM each) with 14 U PSP per nmol sensor proteins if not stated otherwise. […] For quantification of seeding-competent HTT species in tissue samples, the sensor-protein mixture was supplemented with up to 10% (v/v) tissue homogenate. Fluorescence signals were measured every 20 min following a 5 s pulse of vertical shaking with a Tecan M200 fluorescence plate reader at 25° C. for up to 48 h. CyPet donor fluorescence was measured at excitation (Ex): 435 nm/emission (Em): 475 nm; YPet acceptor fluorescence at Ex: 500 nm/Em: 530 nm; the FRET channel (DA) was recorded at Ex: 435 nm/Em: 530 nm. […]

threshold for detecting seeds in FRASE assay: ~60 fM
B1: Ex1Q48 seeds: preformed recombinant mutant huntingtin exon 1 (48 glutamines) aggregates, sonicated, ~1,250 kDa (protein)
chain: MATLEKLMKAFESLKSFQQQQQQQQQQQQQQQQQQQQQQQQQQQQQQQQQQQQQQQQQQQQQQQQPPPPPPPPPPPQLPQPPPQAQPLLPQLQPPPPPPPPPPGPAAAEEPLHRP
